Results on 1 substance are retold here after article PMC8860611.

The term stoichiometry N denotes a count of units in the complex or per binding partner.

This assay has as its target HIV-1 CA A14C/E45C/W184A/M185A (pET11a-CA (A14C, E45C, W184A and M185A)), assembled into soluble cross-linked hexamers (HIV-1). The assay is described as follows: cross-linking.

Consider “HIV-1 CA A14C/E45C/W184A/M185A (pET11a-CA (A14C, E45C, W184A and M185A)), assembled into soluble cross-linked hexamers (natural protein)”, for which the stoichiometry N amounted to 6.
